Laboratory results from IntAct's records for PubMed 20961850.

B1: Phospholipid-transporting ATPase ID (Homo sapiens), P98198 (parent)
chain: MTVPKEMPEKWARAQAPPSWSRKKPSWGTEEERRARANDREYNEKFQYASNCIKTSKYNILTFLPVNLFEQFQEVANTYFLFLLILQLIPQISSLSWFTTIVPLVLVLTITAVKDATDDYFRHKSDNQVNNRQSQVLINGILQQEQWMNVCVGDIIKLENNQFVAADLLLLSSSEPHGLCYIETAELDGETNMKVRQAIPVTSELGDISKLAKFDGEVICEPPNNKLDKFSGTLYWKENKFPLSNQNMLLRGCVLRNTEWCFGLVIFAGPDTKLMQNSGRTKFKRTSIDRLMNTLVLWIFGFLVCMGVILAIGNAIWEHEVGMRFQVYLPWDEAVDSAFFSGFLSFWSYIIILNTVVPISLYVSVEVIRLGHSYFINWDKKMFCMKKRTPAEARTTTLNEELGQVEYIFSDKTGTLTQNIMVFNKCSINGHSYGDVFDVLGHKAELGERPEPVDFSFNPLADKKFLFWDPSLLEAVKIGDPHTHEFFRLLSLCHTVMSEEKNEGELYYKAQSPDEGALVTAARNFGFVFRSRTPKTITVHEMGTAITYQLLAILDFNNIRKRMSVIVRNPEGKIRLYCKGADTILLDRLHHSTQELLNTTMDHLNEYAGEGLRTLVLAYKDLDEEYYEEWAERRLQASLAQDSREDRLASIYEEVENNMMLLGATAIEDKLQQGVPETIALLTLANIKIWVLTGDKQETAVNIGYSCKMLTDDMTEVFIVTGHTVLEVREELRKAREKMMDSSRSVGNGFTYQDKLSSSKLTSVLEAVAGEYALVINGHSLAHALEADMELEFLETACACKAVICCRVTPLQKAQVVELVKKYKKAVTLAIGDGANDVSMIKTAHIGVGISGQEGIQAVLASDYSFSQFKFLQRLLLVHGRWSYLRMCKFLCYFFYKNFAFTMVHFWFGFFCGFSAQTVYDQYFITLYNIVYTSLPVLAMGVFDQDVPEQRSMEYPKLYEPGQLNLLFNKREFFICIAQGIYTSVLMFFIPYGVFADATRDDGTQLADYQSFAVTVATSLVIVVSVQIGLDTGYWTAINHFFIWGSLAVYFAILFAMHSNGLFDMFPNQFRFVGNAQNTLAQPTVWLTIVLTTVVCIMPVVAFRFLRLNLKPDLSDTVRYTQLVRKKQKAQHRCMRRVGRTGSRRSGYAFSHQEGFGELIMSGKNMRLSSLALSSFTTRSSSSWIESLRRKKSDSASSPSGGADKPLKG
partner: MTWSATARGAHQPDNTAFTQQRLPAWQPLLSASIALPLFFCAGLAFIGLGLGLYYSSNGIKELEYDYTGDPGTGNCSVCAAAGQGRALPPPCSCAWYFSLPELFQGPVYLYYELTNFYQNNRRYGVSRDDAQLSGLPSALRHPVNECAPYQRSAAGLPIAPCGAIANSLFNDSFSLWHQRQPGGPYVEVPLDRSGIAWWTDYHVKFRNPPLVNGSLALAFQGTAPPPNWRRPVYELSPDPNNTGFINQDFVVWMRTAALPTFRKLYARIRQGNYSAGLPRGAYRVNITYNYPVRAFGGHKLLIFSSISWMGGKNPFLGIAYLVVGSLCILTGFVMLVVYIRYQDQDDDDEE
B2: Phospholipid-transporting ATPase IC (Homo sapiens), O43520 (parent)
chain: MSTERDSETTFDEDSQPNDEVVPYSDDETEDELDDQGSAVEPEQNRVNREAEENREPFRKECTWQVKANDRKYHEQPHFMNTKFLCIKESKYANNAIKTYKYNAFTFIPMNLFEQFKRAANLYFLALLILQAVPQISTLAWYTTLVPLLVVLGVTAIKDLVDDVARHKMDKEINNRTCEVIKDGRFKVAKWKEIQVGDVIRLKKNDFVPADILLLSSSEPNSLCYVETAELDGETNLKFKMSLEITDQYLQREDTLATFDGFIECEEPNNRLDKFTGTLFWRNTSFPLDADKILLRGCVIRNTDFCHGLVIFAGADTKIMKNSGKTRFKRTKIDYLMNYMVYTIFVVLILLSAGLAIGHAYWEAQVGNSSWYLYDGEDDTPSYRGFLIFWGYIIVLNTMVPISLYVSVEVIRLGQSHFINWDLQMYYAEKDTPAKARTTTLNEQLGQIHYIFSDKTGTLTQNIMTFKKCCINGQIYGDHRDASQHNHNKIEQVDFSWNTYADGKLAFYDHYLIEQIQSGKEPEVRQFFFLLAVCHTVMVDRTDGQLNYQAASPDEGALVNAARNFGFAFLARTQNTITISELGTERTYNVLAILDFNSDRKRMSIIVRTPEGNIKLYCKGADTVIYERLHRMNPTKQETQDALDIFANETLRTLCLCYKEIEEKEFTEWNKKFMAASVASTNRDEALDKVYEEIEKDLILLGATAIEDKLQDGVPETISKLAKADIKIWVLTGDKKETAENIGFACELLTEDTTICYGEDINSLLHARMENQRNRGGVYAKFAPPVQESFFPPGGNRALIITGSWLNEILLEKKTKRNKILKLKFPRTEEERRMRTQSKRRLEAKKEQRQKNFVDLACECSAVICCRVTPKQKAMVVDLVKRYKKAITLAIGDGANDVNMIKTAHIGVGISGQEGMQAVMSSDYSFAQFRYLQRLLLVHGRWSYIRMCKFLRYFFYKNFAFTLVHFWYSFFNGYSAQTAYEDWFITLYNVLYTSLPVLLMGLLDQDVSDKLSLRFPGLYIVGQRDLLFNYKRFFVSLLHGVLTSMILFFIPLGAYLQTVGQDGEAPSDYQSFAVTIASALVITVNFQIGLDTSYWTFVNAFSIFGSIALYFGIMFDFHSAGIHVLFPSAFQFTGTASNALRQPYIWLTIILAVAVCLLPVVAIRFLSMTIWPSESDKIQKHRKRLKAEEQWQRRQQVFRRGVSTRRSAYAFSHQRGYADLISSGRSIRKKRSPLDAIVADGTAEYRRTGDS
partner: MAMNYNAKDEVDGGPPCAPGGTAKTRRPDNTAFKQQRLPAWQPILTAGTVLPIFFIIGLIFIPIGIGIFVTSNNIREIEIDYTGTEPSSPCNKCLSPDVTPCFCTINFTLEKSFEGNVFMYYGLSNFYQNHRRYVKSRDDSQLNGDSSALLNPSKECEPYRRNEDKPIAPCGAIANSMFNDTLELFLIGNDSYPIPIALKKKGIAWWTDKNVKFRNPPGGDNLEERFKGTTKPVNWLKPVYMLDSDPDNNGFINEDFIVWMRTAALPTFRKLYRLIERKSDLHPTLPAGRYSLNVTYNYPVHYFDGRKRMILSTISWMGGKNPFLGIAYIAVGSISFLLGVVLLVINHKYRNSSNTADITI
B3: Phospholipid-transporting ATPase IC (Homo sapiens), O43520 (parent)
chain: B2 chain
partner: B1 partner
B4: Phospholipid-transporting ATPase ID (Homo sapiens), P98198 (parent)
chain: B1 chain
partner: B2 partner

Variants of: B1
Conditions: with cc50b_human TMEM30B

Variant | effect of a mutation on the interaction
D411N | with no effect

Variants of: B2
Conditions: with cc50a_human TMEM30A

Variant | effect of a mutation on the interaction
D454N | decreasing interaction strength

Variants of: B3
Conditions: with cc50b_human TMEM30B

Variant | effect of a mutation on the interaction
D454N | decreasing interaction strength

Variants of: B4
Conditions: with cc50a_human TMEM30A

Variant | effect of a mutation on the interaction
D411N | decreasing interaction strength
